The target of experiment [1] is rhNav1.7α + β1-β2-β3 (rhesus Nav1.7α co-expressed with Navβ1, Navβ2 and Navβ3) (rhesus monkey). Kind of experiment: FACS, periplasmic extract, CHO Flp-In cells; SD MFI 18. On the technique in general: In flow cytometry, cells or beads pass a laser one at a time.
For experiment [2] the target is unchanged. Kind of experiment: FACS, periplasmic extract, CHO Flp-In cells; SD MFI 6.
Experiment [3] concerns the target muNav1.7α (murine Nav1.7α) (murine) (UniProt Q62205). Kind of experiment: FACS, periplasmic extract, HEK Jmp-In cells; SD MFI 7.
The target is the same in experiment [4]. Kind of experiment: FACS, periplasmic extract, HEK Jmp-In cells; SD MFI 1.
Experiment [5] has the same target. Kind of experiment: FACS, periplasmic extract, HEK Jmp-In cells; SD MFI 8.
In experiment [6] the target is rhNav1.7α + β1-β2-β3 (rhesus Nav1.7α co-expressed with Navβ1, Navβ2 and Navβ3) (rhesus monkey). Kind of experiment: FACS, periplasmic extract, CHO Flp-In cells; SD MFI 1.
Experiment [7] deals with muNav1.7α (murine Nav1.7α) (murine) (UniProt Q62205). Kind of experiment: FACS, periplasmic extract, HEK Jmp-In cells; SD MFI 21.
Experiment [8] deals with rhNav1.7α + β1-β2-β3 (rhesus Nav1.7α co-expressed with Navβ1, Navβ2 and Navβ3) (rhesus monkey). Kind of experiment: FACS, periplasmic extract, CHO Flp-In cells; SD MFI 8.
Experiment [9] addresses muNav1.7α (murine Nav1.7α) (murine) (UniProt Q62205). Kind of experiment: FACS, periplasmic extract, HEK Jmp-In cells; SD MFI 19.
Experiment [10] has as its target rhNav1.7α + β1-β2-β3 (rhesus Nav1.7α co-expressed with Navβ1, Navβ2 and Navβ3) (rhesus monkey). Kind of experiment: FACS, periplasmic extract, CHO Flp-In cells; SD MFI 30.
For experiment [11], the target named is huNav1.7α + β1-β2-β3 (human Nav1.7α co-expressed with Navβ1, Navβ2 and Navβ3) (human) (UniProt Q15858). Kind of experiment: FACS, periplasmic extract, CHO Flp-In cells; SD MFI 16.
Experiment [12] concerns the target rhNav1.7α + β1-β2-β3 (rhesus Nav1.7α co-expressed with Navβ1, Navβ2 and Navβ3) (rhesus monkey). Kind of experiment: FACS, periplasmic extract, CHO Flp-In cells; SD MFI 20.
Experiment [13] has as its target muNav1.7α (murine Nav1.7α) (murine) (UniProt Q62205). Kind of experiment: FACS, periplasmic extract, HEK Jmp-In cells; SD MFI 12.
Experiment [14] addresses rhNav1.7α + β1-β2-β3 (rhesus Nav1.7α co-expressed with Navβ1, Navβ2 and Navβ3) (rhesus monkey). Kind of experiment: FACS, periplasmic extract, CHO Flp-In cells; SD MFI 10.
For experiment [15] the target is unchanged. Kind of experiment: FACS, periplasmic extract, CHO Flp-In cells; SD MFI 13.
In experiment [16] the target is muNav1.7α (murine Nav1.7α) (murine) (UniProt Q62205). Kind of experiment: FACS, periplasmic extract, HEK Jmp-In cells; SD MFI 16.
For experiment [17] the target is unchanged. Kind of experiment: FACS, periplasmic extract, HEK Jmp-In cells; SD MFI 0.
The target is the same in experiment [18]. Kind of experiment: FACS, periplasmic extract, HEK Jmp-In cells; SD MFI 25.
The target is the same in experiment [19]. Kind of experiment: FACS, periplasmic extract, HEK Jmp-In cells; SD MFI 15.
For experiment [20], the target named is rhNav1.7α + β1-β2-β3 (rhesus Nav1.7α co-expressed with Navβ1, Navβ2 and Navβ3) (rhesus monkey). Kind of experiment: FACS, periplasmic extract, CHO Flp-In cells; SD MFI 0.
In experiment [21] the target is huNav1.5-β1-β2-β3 (human) (UniProt Q14524). Kind of experiment: binding FACS, CHO Flp-In, periplasmic extract.
For experiment [22] the target is unchanged. Kind of experiment: FACS, CHO Flp-In, competitor 1 µM F010300703.
For experiment [23] the target is unchanged. Kind of experiment: FACS, CHO Flp-In, competitor 1 µM IRR00092.
The target is the same in experiment [24]. Kind of experiment: binding FACS, HEK Flp-In.

B1: F0103464B09 N99A library variant (VHH, name in Kabat numbering)
VHH: EVQLVESGGGLVQPGGSLRLSCATTSRAFIRDVFTGWYRRVPGKERELVARIYNGGNTNYADFAKGRFSISRDNAKKMVTLRMSNLKPEDTGVYYCLFSGTIATGREYRSGDYWGQGTLVTVSS
Take B1: in experiment [1], the Mean MFI came to 611 MFI.

B2: F0103464B09 N99I library variant (VHH, name in Kabat numbering)
VHH: EVQLVESGGGLVQPGGSLRLSCATTSRAFIRDVFTGWYRRVPGKERELVARIYNGGNTNYADFAKGRFSISRDNAKKMVTLRMSNLKPEDTGVYYCLFSGTIITGREYRSGDYWGQGTLVTVSS
For the molecule B2, the figures for the Mean MFI in [2] and in experiment [3] were 540 MFI and 946 MFI, respectively.

B3: F0103464B09 N99F library variant (VHH, name in Kabat numbering)
VHH: EVQLVESGGGLVQPGGSLRLSCATTSRAFIRDVFTGWYRRVPGKERELVARIYNGGNTNYADFAKGRFSISRDNAKKMVTLRMSNLKPEDTGVYYCLFSGTIFTGREYRSGDYWGQGTLVTVSS
As to B3, the Mean MFI in [2] came to 516 MFI; in experiment [4], 938 MFI.

B4: F0103464B09 N99E library variant (VHH, name in Kabat numbering)
VHH: EVQLVESGGGLVQPGGSLRLSCATTSRAFIRDVFTGWYRRVPGKERELVARIYNGGNTNYADFAKGRFSISRDNAKKMVTLRMSNLKPEDTGVYYCLFSGTIETGREYRSGDYWGQGTLVTVSS
Regarding B4, the Mean MFI in [2] turned out to be 528 MFI; in [4], 938 MFI.

B5: F0103464B09 N99K library variant (VHH, name in Kabat numbering)
VHH: EVQLVESGGGLVQPGGSLRLSCATTSRAFIRDVFTGWYRRVPGKERELVARIYNGGNTNYADFAKGRFSISRDNAKKMVTLRMSNLKPEDTGVYYCLFSGTIKTGREYRSGDYWGQGTLVTVSS
Take B5: the Mean MFI was determined as 923 MFI in [5] and 537 MFI in experiment [6].

B6: F0103464B09 N99G library variant (VHH, name in Kabat numbering)
VHH: EVQLVESGGGLVQPGGSLRLSCATTSRAFIRDVFTGWYRRVPGKERELVARIYNGGNTNYADFAKGRFSISRDNAKKMVTLRMSNLKPEDTGVYYCLFSGTIGTGREYRSGDYWGQGTLVTVSS
On to B6, for which the Mean MFI in experiment [7] amounted to 956 MFI; in experiment [8], 530 MFI.

B7: F0103464B09 T100F library variant (VHH, name in Kabat numbering)
VHH: EVQLVESGGGLVQPGGSLRLSCATTSRAFIRDVFTGWYRRVPGKERELVARIYNGGNTNYADFAKGRFSISRDNAKKMVTLRMSNLKPEDTGVYYCLFSGTINFGREYRSGDYWGQGTLVTVSS
For the molecule B7, the Mean MFI in [9] worked out at 997 MFI; in experiment [10], 533 MFI.

B8: F0103464B09 N99P library variant (VHH, name in Kabat numbering)
VHH: EVQLVESGGGLVQPGGSLRLSCATTSRAFIRDVFTGWYRRVPGKERELVARIYNGGNTNYADFAKGRFSISRDNAKKMVTLRMSNLKPEDTGVYYCLFSGTIPTGREYRSGDYWGQGTLVTVSS
For the molecule B8, the values for the Mean MFI in [11], in experiment [12] and in experiment [13] were 612 MFI, 554 MFI and 912 MFI, respectively.

B9: F0103464B09 N99L library variant (VHH, name in Kabat numbering)
VHH: EVQLVESGGGLVQPGGSLRLSCATTSRAFIRDVFTGWYRRVPGKERELVARIYNGGNTNYADFAKGRFSISRDNAKKMVTLRMSNLKPEDTGVYYCLFSGTILTGREYRSGDYWGQGTLVTVSS
B9: the Mean MFI in experiment [9] came out at 919 MFI; in experiment [14], 536 MFI.

B10: F0103464B09 T100D library variant (VHH, name in Kabat numbering)
VHH: EVQLVESGGGLVQPGGSLRLSCATTSRAFIRDVFTGWYRRVPGKERELVARIYNGGNTNYADFAKGRFSISRDNAKKMVTLRMSNLKPEDTGVYYCLFSGTINDGREYRSGDYWGQGTLVTVSS
As to B10, the Mean MFI in experiment [6] amounted to 526 MFI.

B11: F0103464B09 T100V library variant (VHH, name in Kabat numbering)
VHH: EVQLVESGGGLVQPGGSLRLSCATTSRAFIRDVFTGWYRRVPGKERELVARIYNGGNTNYADFAKGRFSISRDNAKKMVTLRMSNLKPEDTGVYYCLFSGTINVGREYRSGDYWGQGTLVTVSS
Regarding B11, the Mean MFI in experiment [15] worked out at 564 MFI; in [16], 1680 MFI.

B12: F0103464B09 N99V library variant (VHH, name in Kabat numbering)
VHH: EVQLVESGGGLVQPGGSLRLSCATTSRAFIRDVFTGWYRRVPGKERELVARIYNGGNTNYADFAKGRFSISRDNAKKMVTLRMSNLKPEDTGVYYCLFSGTIVTGREYRSGDYWGQGTLVTVSS
Turning to B12, the Mean MFI in experiment [2] was 552 MFI; in experiment [16], 952 MFI.

B13: F0103464B09 N99D library variant (VHH, name in Kabat numbering)
VHH: EVQLVESGGGLVQPGGSLRLSCATTSRAFIRDVFTGWYRRVPGKERELVARIYNGGNTNYADFAKGRFSISRDNAKKMVTLRMSNLKPEDTGVYYCLFSGTIDTGREYRSGDYWGQGTLVTVSS
B13: the Mean MFI in [17] was determined as 929 MFI; in experiment [10] it was 520 MFI.

B14: F0103464B09 N99C library variant (VHH, name in Kabat numbering)
VHH: EVQLVESGGGLVQPGGSLRLSCATTSRAFIRDVFTGWYRRVPGKERELVARIYNGGNTNYADFAKGRFSISRDNAKKMVTLRMSNLKPEDTGVYYCLFSGTICTGREYRSGDYWGQGTLVTVSS
As to B14, the figures for the Mean MFI in experiment [2] and in experiment [18] were 528 MFI and 930 MFI, respectively.

B15: F0103464B09 N99M library variant (VHH, name in Kabat numbering)
VHH: EVQLVESGGGLVQPGGSLRLSCATTSRAFIRDVFTGWYRRVPGKERELVARIYNGGNTNYADFAKGRFSISRDNAKKMVTLRMSNLKPEDTGVYYCLFSGTIMTGREYRSGDYWGQGTLVTVSS
Take B15: the Mean MFI in [19] came out at 936 MFI; in experiment [20], 523 MFI.

B16: F0103PMP492E09 (bispecific antibody)
chain: EVQLVESGGGLVQPGGSLRLSCAASGSIFNINSMAWYRRAPGKQRELVASSTNGGSTNYADSVKGRFTISRDNAKRVYLQMNSLTPEDTAVYYCRALLQPSIYDISRTYWGQGTLVTVSSGGGGSGGGGSGGGGSGGGGSGGGGSGGGGSGGGGSGGGGSGGGGSGGGGSEVQLVESGGGLVQAGGSLRLSCAASKSILSFAYMRWYRQAPGKQREFVASIAIGGATSYTDSVKGRFTISRDNAKNTVYLQMNSLKPEDTAVYYCSAPAGQYRGQGTLVTVSSAAADYKDHDGDYKDHDIDYKDDDDKGAAHHHHHHKAAGGGGG
With B16, the MFI in experiment [21] is 559 MFI; in [22], 825 MFI; in experiment [23] it was 1860 MFI; in [24], 1660 MFI.

B17: F0103PMP478E09 (bispecific antibody)
chain: EVQLVESGGGLVQPGGSLRLSCAASGSIFNINSMAWYRRAPGKQRELVASSTNGGSTNYADSVKGRFTISRDNAKRVYLQMNSLTPEDTAVYYCRALLQPSIYDISRTYWGQGTLVTVSSGGGGSGGGGSGGGGSGGGGSGGGGSGGGGSGGGGSGGGGSGGGGSGGGGSEVQLVESGGGLVQAGGSLRLSCAASGRAFSTLAMGWFRQAPGKEREFVAAISRNGNNSATGDSLKGRFTISRDSTKSTVFLQMNTLKPEDTAVYYCAAISTPSASHPYVRKESYRYWGQGTQVTVSSAAADYKDHDGDYKDHDIDYKDDDDKGAAHHHHHHKAAGGGGG
For the molecule B17, the MFI in experiment [21] amounted to 1080 MFI; in experiment [22], 833 MFI; in experiment [23], 2060 MFI; in [24], 877 MFI.
